Sequences and labels used below:
B1: DLC1 (parent)
chain: KRSWEEHVTHWMGQPFNSDDRNTA
B2: ARL6IP1 (parent)
chain: YLDPSVLSGVSCFVMFLCLADYLV
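Note: lentivirally expressed fusions sorted by FACS into six bins by GFP to DsRed ratio, PSI derived from sequencing read proportions per bin multiplied by bin number.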

One series covers variants of B1. The experiment in a line: protein stability index of a GFP-peptide fusion (GPS, HEK-293T) (PSI 1-6); higher = more stable. The conditions noted are these: c terminus: a fixed tail appended.
KRSWEEHVTHWMGQPFGSDDRNTA: the protein stability index is 2.44.
Same read-out and setting: as for KRSWEEHVTHWMGQPFISDDRNTA, the figure is 2.38; as for KRSWEEHVTHWMGQPFASDDRNTA, 2.64.
Same read-out and setting: as for KRSWEEHVTHWMGQPFVSDDRNTA, the figure is 2.26; as for KRSWEEHVTHWMGQPFRSDDRNTA, 1.64.
The same measure, in the same setting: as for KRSWEEHVTHWMGQPFPSDDRNTA, the figure is 2.73.
In the case of KRSWEEHVTHWMGQPFTSDDRNTA, the protein stability index stood at 3.4.
Same read-out and setting: next, KRSWEEHVTHWMGQPFMSDDRNTA: 2.15.
Same read-out and setting: as for KRSWEEHVTHWMGQPFSSDDRNTA, the figure is 2.63; as for KRSWEEHVTHWMGQPFDSDDRNTA, 3.03.
Same read-out and setting: next, KRSWEEHVTHWMGQPFESDDRNTA: 2.52; KRSWEEHVTHWMGQPFQSDDRNTA: 3.12.
For the variant KRSWEEHVTHWMGQPFNSDDRYTA, the protein stability index was found to be 2.09.
On the same count and under the same terms, next, KRSWEEHVTHWMGQPFNSDDRLTA: 2.06.
On the same count and under the same terms, as for KRSWEEHVTHWMGQPFNSDDRHTA, the figure is 2.04.
KRSWEEHVTHWMGQPFNSDDRGTA: the protein stability index was 2.81.
As to KRSWEEHVTHWMGQPFNSDDRFTA, the protein stability index came to 2.04.
The same measure, in the same setting: next, KRSWEEHVTHWMGQPFNSDDRTTA: 2.29; KRSWEEHVTHWMGQPFNSDDRRTA: 2.53; KRSWEEHVTHWMGQPFNSDDRCTA: 1.94.
The same measure, in the same setting: as for KRSWEEHVTHWMGQPFNSDDRATA, the figure is 1.81; as for KRSWEEHVTHWMGQPFNSDDRQTA, 2.67; as for KRSWEEHVTHWMGQPFNSDDRSTA, 2.74.
Same read-out and setting: as for KRSWEEHVTHWMGQPFNSDDRVTA, the figure is 2.49; as for KRSWEEHVTHWMGQPFNSDDRWTA, 1.7.
As for KRSWEEHVTHWMGQPFNSDDRITA, the protein stability index amounted to 2.12.
With KRSWEEHVTHWMGQPFNSDDRETA, the protein stability index was determined as 2.56.
On to KRSWEEHVTHWMGQPFNSDDRPTA, for which the protein stability index turned out to be 2.73.
The same measure, in the same setting: next, KRSWEEHVTHWMGQPFNSDDRMTA: 2.28; KRSWEEHVTHWMGQPFNSDDRDTA: 2.59; KRSWEEHVTHWMGQPFNSDDRKTA: 3.02.
Still for that read-out and setting: next, KRSWEEHVTHWMGQPFNSDWRNTA: 1.59; KRSWEEHVTHWMGQPFNSDARNTA: 3.41; KRSWEEHVTHWMGQPFNSDYRNTA: 1.77.
Same read-out and setting: as for KRSWEEHVTHWMGQPFNSDVRNTA, the figure is 2.02; as for KRSWEEHVTHWMGQPFNSDNRNTA, 2.59.
KRSWEEHVTHWMGQPFNSDQRNTA: the protein stability index worked out at 3.05.
The same measure, in the same setting: as for KRSWEEHVTHWMGQPFNSDLRNTA, the figure is 2.48; as for KRSWEEHVTHWMGQPFNSDFRNTA, 2.29.
On the same count and under the same terms, as for KRSWEEHVTHWMGQPFNSDHRNTA, the figure is 2.48; as for KRSWEEHVTHWMGQPFNSDIRNTA, 2.54.
On the same count and under the same terms, next, KRSWEEHVTHWMGQPFNSDSRNTA: 1.91; KRSWEEHVTHWMGQPFNSDKRNTA: 2.51.
With KRSWEEHVTHWMGQPFNSDGRNTA, the protein stability index was found to be 2.43.
The same measure, in the same setting: as for KRSWEEHVTHWMGQPFNSDERNTA, the figure is 2.87; as for KRSWEEHVTHWMGQPFNSDTRNTA, 2.75; as for KRSWEEHVTHWMGQPFNSDCRNTA, 2.19.
For the variant KRSWEEHVTHWMGQPFNSDPRNTA, the protein stability index is 2.76.
On the same count and under the same terms, as for KRSWEEHVTHWMGQPFNSDMRNTA, the figure is 1.91.
Still for that read-out and setting: as for KRSWEEHVTHWMGQPFNSDRRNTA, the figure is 2.66; as for KRSWEEHVTHWMGQPFNGDDRNTA, 2.76; as for KRSWEEHVTHWMGQPFNTDDRNTA, 3.21.
On the same count and under the same terms, as for KRSWEEHVTHWMGQPFNLDDRNTA, the figure is 2.03; as for KRSWEEHVTHWMGQPFNVDDRNTA, 2.31.
For KRSWEEHVTHWMGQPFNPDDRNTA, the protein stability index was found to be 3.11.
Same read-out and setting: next, KRSWEEHVTHWMGQPFNADDRNTA: 3.48; KRSWEEHVTHWMGQPFNHDDRNTA: 2.66; KRSWEEHVTHWMGQPFNFDDRNTA: 2.27.
The same measure, in the same setting: next, KRSWEEHVTHWMGQPFNCDDRNTA: 2.34; KRSWEEHVTHWMGQPFNDDDRNTA: 3.1; KRSWEEHVTHWMGQPFNYDDRNTA: 2.26.
Same read-out and setting: next, KRSWEEHVTHWMGQPFNEDDRNTA: 2.97; KRSWEEHVTHWMGQPFNIDDRNTA: 2.61.
As for KRSWEEHVTHWMGQPFNMDDRNTA, the protein stability index came out at 2.92.
On the same count and under the same terms, next, KRSWEEHVTHWMGQPFNQDDRNTA: 3.02; KRSWEEHVTHWMGQPFNRDDRNTA: 2.1; KRSWEEHVTHWMGQPFNKDDRNTA: 3.12.
Consider KRSWEEHVTHWMGQPFNWDDRNTA, for which the protein stability index was 2.01.

In the next series the parent is B2. The description is as above. The conditions noted are these: c terminus: a fixed tail appended.
Regarding YLEPSVLSGVSCFVMFLCLADYLV, the protein stability index was determined as 1.94.
Still for that read-out and setting: next, YLHPSVLSGVSCFVMFLCLADYLV: 1.69; YLAPSVLSGVSCFVMFLCLADYLV: 5.08; CLDPSVLSGVSCFVMFLCLADYLV: 3.1.
The same measure, in the same setting: next, DLDPSVLSGVSCFVMFLCLADYLV: 2.61; ILDPSVLSGVSCFVMFLCLADYLV: 2.63; HLDPSVLSGVSCFVMFLCLADYLV: 3.89.
The same measure, in the same setting: as for RLDPSVLSGVSCFVMFLCLADYLV, the figure is 2.81; as for ALDPSVLSGVSCFVMFLCLADYLV, 1.59; as for NLDPSVLSGVSCFVMFLCLADYLV, 4.11.
Consider MLDPSVLSGVSCFVMFLCLADYLV, for which the protein stability index turned out to be 3.37.
Still for that read-out and setting: next, VLDPSVLSGVSCFVMFLCLADYLV: 2.9; YTDPSVLSGVSCFVMFLCLADYLV: 3.75; YEDPSVLSGVSCFVMFLCLADYLV: 3.04.
Still for that read-out and setting: next, YRDPSVLSGVSCFVMFLCLADYLV: 2.5.
As to YKDPSVLSGVSCFVMFLCLADYLV, the protein stability index worked out at 3.31.
On the same count and under the same terms, as for YFDPSVLSGVSCFVMFLCLADYLV, the figure is 3; as for YNDPSVLSGVSCFVMFLCLADYLV, 2.5.
The same measure, in the same setting: as for YHDPSVLSGVSCFVMFLCLADYLV, the figure is 2.67.
On the same count and under the same terms, as for YCDPSVLSGVSCFVMFLCLADYLV, the figure is 2.99; as for YDDPSVLSGVSCFVMFLCLADYLV, 3.95; as for YYDPSVLSGVSCFVMFLCLADYLV, 2.35.
For the variant YPDPSVLSGVSCFVMFLCLADYLV, the protein stability index turned out to be 2.76.
Consider YADPSVLSGVSCFVMFLCLADYLV, for which the protein stability index came out at 2.29.
As for YQDPSVLSGVSCFVMFLCLADYLV, the protein stability index was 2.09.
Consider YIDPSVLSGVSCFVMFLCLADYLV, for which the protein stability index came out at 1.63.

The values above are taken from the supplement of paper PMC10567573.
